Key:
mice = test: Oral immunogenicity of tomato sNV110-2 powder versus gavaged iNV VLPs; format: in vivo, mouse
Method: FIGS. 23A-B show the immunologic response of mice to rNV-transgenic tomato. […] Five mice in each group ingested 1.2 g, 1.5 g or 2.3 g of tomato powder mixed with 0.6 volume of water, on days 1, 4, 17, and 20. One group was gavaged with 100 g iNV VLPs each. Nontransgenic tomato powder was fed to a negative control group. […] Standard errors were calculated on the log-transformed titers.
Three doses of tomato sNV110-2 powder (1.5 gm, 2.5 gm, or 5 gm) were provided on days 1, 4, 17, and 20. The actual doses ingested by each mouse were, on average, 1.2, 1.5 and 2.2 gm each feeding, containing 192, 240, and 352 μg rNV/dose, respectively, or 60, 75, and 1101 g VLPs/dose. Nontransgenic tomato TA234 powder (5 gram per mouse per feed) were given to one control group (−), and 100 μg purified iNV VLPs were orally administered by gavage to another control group (+). Serum and fecal antibodies were measured by ELISA, and GMTs were calculated for each group of mice. All pre-immune serum and fecal samples were negative for rNV-specific IgG and IgA, as were control group (−) (titers<20; the lowest dilution tested). […] No significant difference (p=0.05) in primary titers was observed among groups. […] Intestinal antibody responses reached their peaks at 27 dpi with IgA GMTs ranging from 10681 to 19127. […] In contrast, the control i-rNV gavage group had their maximum levels of IgG GMT=826 and IgA GMT=1748, which were 8.2 and 6.2 fold less than the group that ingested 1.2 gram of sNV110-2 powder (p<0.0183). Further, long-term serum antibody responses declined to baseline in 3 months (IgG GMT=58 at 87 dpi).

[1] = low pH, lyophilized, stored long term at 4° C.; cited from earlier work
[2] = day 11, gavage of purified iNV VLPs (100 μg)

B1: iNV VLPs: purified insect cell (baculovirus) derived recombinant Norwalk virus virus-like particles, control reference antigen (protein)
chain: MMMASKDATSSVDGASGAGQLVPEVNASDPLAMDPVAGSSTAVATAGQVNPIDPWIINNFVQAPQGEFTISPNNTPGDVLFDLSLGPHLNPFLLHLSQMYNGWVGNMRVRIMLAGNAFTAGKIIVSCIPPGFGSHNLTIAQATLFPHVIADVRTLDPIEVPLEDVRNVLFHNNDRNQQTMRLVCMLYTPLRTGGGTGDSFVVAGRVMTCPSPDFNFLFLVPPTVEQKTRPFTLPNLPLSSLSNSRAPLPISSMGISPDNVQSVQFQNGRCTLDGRLVGTTPVSLSHVAKIRGTSNGTVINLTELDGTPFHPFEGPAPIGFPDLGGCDWHINMTQFGHSSQTQYDVDTTPDTFVPHLGSIQANGIGSGNYVGVLSWISPPSHPSGSQVDLWKIPNYGSSITEATHLAPSVYPPGFGEVLVFFMSKMPGPGAYNLPCLLPQEYISHLASEQAPTVGEAALLHYVDPDTGRNLGEFKAYPDGFLTCVPNGASSGPQQLPINGVFVFVSWVSRFYQLKPVGTASSARGRLGLRR
- IgA GMT (mice; [2]): 62
- IgG GMT (mice; [2]): 18
- mice with primary intestinal antibody responses (mice; [2]): 2 of 5
- mice with primary serum antibody responses (mice; [2]): 1 of 5
- maximum IgA GMT (mice; i-rNV gavage control group): 1748
- maximum IgG GMT (mice; i-rNV gavage control group): 826
- long-term IgG GMT (mice; i-rNV gavage group, 87 dpi): 58
- maximum IgA GMT, fold less than group ingesting 1.2 gram sNV110-2 powder (mice; p<0.0183): 6.2 fold
- maximum IgG GMT, fold less than group ingesting 1.2 gram sNV110-2 powder (mice; p<0.0183): 8.2 fold
- stability [1]: stable

— patent US7879338B2, “Vectors and methods for immunization against norovirus using transgenic plants” (Boyce Thompson Institute for Plant Research, priority 2003, dated 2011)
